Results on 1 molecule are retold here after US20100278838A1, “EPHA2 MONOCLONAL ANTIBODIES AND METHODS OF USE THEREOF” (MEDIMMUNE, LLC, priority 2002, published 2010).

Assay [1] has as its system EphA2 on non-transformed MCF-10A cells. Briefly: Immunofluorescence binding to non-transformed cells with or without EGTA. Format: cell-based. As to conditions: 4mM EGTA for 20 min. The method, then: (§1) (A, B) Non-transformed MCF-10A cells were labeled with EA2 at 4° C. either before (A) or after (B) treatment with EGTA and prior to fixation and immunolabeling with fluorophore-conjugated anti-mouse IgG. (C, D) Non-transformed MCF-10A (C) or transformed MDA-MB-231 (D) cells were labeled with EA2 either before (middle) or after (top) treatment with EGTA. Control cells were incubated with secondary antibody alone (bottom). The amount of EA2-EphA2 binding was measured using flow cytometry.
The epitopes of EphA2 antibodies were characterized. Non-transformed MCF-10A cells or transformed MDA-MB-231 cells were incubated with 10 μg/ml Eph099B-233.152 or EA2 at 4° C. for 30 min. prior to fixation in a 3% formalin solution and immunolabeling with fluorophore-conjugated anti-mouse IgG. […] Treatment of non-transformed MCF-10A cells with 4mM EGTA for 20 min. dissociated the cells.

A further assay has as its system MCF-7^EphA2 cells. Briefly: Soft agar colonization of MCF-7^EphA2 cells. The format is cell-based, human. As to conditions: EA2 10 μg/ml, tamoxifen 1 μM. The method, then:
FIGS. 11A-11B: EphA2 overexpression decreases tamoxifen sensitivity. (A) 1×10^5 MCF-7 or MCF-7^EphA2 cells were suspended in soft agar in the presence of 1 μM tamoxifen (TAM) and or 1 μM 17β-estradiol and colony formation was evaluated microscopically after 14 days. (B) MCF-7 (circles) or MCF-7^EphA2 cells (squares) were implanted into the mammary fatpad (n=15 mice per group) in the presence of supplemental estrogen. Tamoxifen treatment was initiated 17 days post-implantation. Tumor volume of tamoxifen treated (black circles and squares) and saline treated (white circles and squares) animals was measured at the indicated time.
FIGS. 13A-13C: EphA2 agonistic antibody EA2 decreases malignant growth. MCF-7^EPhA2 cells were incubated in the presence of 3 μg/ml of EA2 for the time indicated prior to sample extraction and western blot analyses with an EphA2-specific antibody (D7). […]
EphA2 overexpression increased malignant growth (FIGS. 8A-8B). […] Colony formation in soft agar was performed as previously described (Zelinski et al., 2001, Cancer Res. 61:2301-6) and scored microscopically, defining clusters of at least three cells as a positive. […] Error bars represent the standard error of the mean of at least three different experiments as determined using Microsoft Excel software.
Sensitivity of MCF-7^EphA2 cells to tamoxifen was measured. […]

Assay [2] has as its target T1, EphA2-Ephrin A1-Fc-EA2 complex (Homo sapiens, UniProt P29317).
T1 construct: consisting of the extracellular domain of EphA2 linked to human IgG1 constant region
Briefly: Displacement of labeled EA2 from EphA2-Ephrin A1-Fc complex by unlabeled competitor. Particulars: biotinylated EA2 10 μg/ml, 30 min. The format is binding. As for the experimental part:
FIGS. 18A-18B: EphA2 EA2 epitope is distinct from Eph099B-233.152 epitope and ligand binding site. (A) EphA2-Fc was incubated with and bound to immobilized Ephrin A1-Fc. Labeled Ephrin A1-Fc (black), EA2 (white) or Eph099B-233.152 (grey) was incubated with the EphA2-Ephrin A1-Fc complex and amount of binding was measured. (B) EphA2-Fc was incubated with and bound to immobilized Ephrin A1-Fc. Labeled EA2 was then incubated with the EphA2-Ephrin A1 complex. Unlabeled competitor was incubated with EphA2-Ephrin A1-EA2 complex in the indicated amount. Competitors were Ephrin A1-Fc (black), EA2 (white) or Eph099B-233.152 (grey).
The EphA2-Ephrin A1-Fc complex was prepared as described above. Biotinylated EA2 (10 μg/ml) was then incubated with the complex for 30 min. Unlabeled competitor was incubated with EphA2-Ephrin A1-Fc-EA2 complex in the indicated amount. Unlabeled EA2 could displace the labeled EA2 at concentrations of 100 ng/ml or greater.

The test system of assay [3] is EphA2 on transformed MDA-MB-231 cells. Briefly: Flow cytometry of EA2 binding, transformed cells with or without EGTA. The format is cell-based. As to conditions: 10 μg/ml EA2; 4 mM EGTA 10-15 minutes on ice. The method, then:
as §1
An equivalent experiment was performed using MCF-10A or MDA-MB-231 cells. The amount of EA2 binding to EphA2 was measured using flow cytometry (FIGS. 17C-17D). Cells were either treated by incubation in 4 mM EGTA for 10-15 minutes on ice (top panel) or were not treated with EGTA (middle panel) before incubation with 10 μg/ml EA2. Cells were then fixed with 3% formalin and labeled with fluorophore-labeled donkey anti-mouse IgG. Control cells were incubated only with secondary antibody (fluorophore-labeled donkey anti-mouse IgG) in the absence of primary antibody (EA2) (bottom panel). The samples were then evaluated using flow cytometry (Becton Dickinson FACStar Plus).

Entries after “also recorded” stand apart in the source; their conditions may differ. Some results are limits rather than exact numbers.

T1 sequence (P29317 24-537 limits assumed): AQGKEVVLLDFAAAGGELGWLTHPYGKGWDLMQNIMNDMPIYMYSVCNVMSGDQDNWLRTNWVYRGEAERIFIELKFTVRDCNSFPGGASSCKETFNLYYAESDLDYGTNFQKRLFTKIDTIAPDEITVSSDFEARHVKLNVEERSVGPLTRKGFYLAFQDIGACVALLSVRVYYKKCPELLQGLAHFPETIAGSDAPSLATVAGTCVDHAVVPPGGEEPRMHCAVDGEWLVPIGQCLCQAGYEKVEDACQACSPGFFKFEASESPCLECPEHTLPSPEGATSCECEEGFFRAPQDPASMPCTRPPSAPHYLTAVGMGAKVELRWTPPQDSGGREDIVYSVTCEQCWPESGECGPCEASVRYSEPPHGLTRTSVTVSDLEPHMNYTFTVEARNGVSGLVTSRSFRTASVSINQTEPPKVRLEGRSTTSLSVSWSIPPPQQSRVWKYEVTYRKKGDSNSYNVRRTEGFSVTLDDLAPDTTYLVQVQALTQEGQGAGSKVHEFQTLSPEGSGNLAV
T1 sequence (P20827 19-182 partner limits assumed): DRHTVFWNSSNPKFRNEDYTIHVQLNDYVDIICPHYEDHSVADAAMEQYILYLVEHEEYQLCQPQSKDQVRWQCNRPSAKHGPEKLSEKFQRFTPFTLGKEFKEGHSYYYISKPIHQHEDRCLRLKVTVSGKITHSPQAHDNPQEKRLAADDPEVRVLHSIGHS

B1: EA2: EphA2 agonistic monoclonal antibody; ATCC deposit no. PTA-4380; co-pending application Ser. No. 10/436,783; VL SEQ ID NO:33, VH SEQ ID NO:37 (antibody, listed as Homo Sapiens, V domains shown)
VH: DVKLVESGGGLVKPGGSLKLSCAASGFTFSSYTMSWVRQTPEKRLEWVATISSGGTYTYYPDSVKGRFTISRDNAKNTLYLQMSSLKSEDTAMYYCTREAIFTYWGQGTLVTVSA
VL: DIKMTQSPSSMYASLGERVTITCKASQDINNYLSWFQQKPGKSPKTLIYRANRLVDGVPSRFSGSGSGQDYSLTISSLEYEDMGIYYCLKYDEFPYTFGGGTKLEIK
With B1, the “Binding to EphA2 on MCF-10A cells with or without EGTA dissociation” value in assay [1] was “bound EphA2 on the EGTA dissociated cells but not the untreated cells; also recorded: preferentially binds EphA2 epitopes exposed by decreasing cell-cell contacts”. Besides, in the assay on MCF-7^EphA2 cells, the “Sensitivity of MCF-7^EphA2 cells to tamoxifen in soft agar” value was “increased the sensitivity of MCF-7^EphA2 cells to tamoxifen” and the “Inhibition / decrease of soft agar colonization, MCF-7^EphA2 cells” value was 19%. Also, the “Concentration of unlabeled competitor displacing labeled EA2” value in assay [2] is not below 100 ng/mL. For the same molecule, in assay [3], the “Effect of EGTA treatment on EA2 binding, transformed cells” value is on record as “did not affect”.
